Publication PMC7899689

Experiments:
[1] = biological target: human recombinant HER2 protein (extracellular domain Thr23-Thr652 of human ERBB2 with His tag) (human) (UniProt P04626); assay: SEC-MALS
[2] = biological target: human recombinant HER2 protein (extracellular domain Thr23-Thr652 of human ERBB2 with His tag) (human) (UniProt P04626); assay: SEC

percent of antibody unbound (mixed 1:1) [1]: 40% | percent of antibody unbound (mixed 1:1) [2]: 40%
Substance: trastuzumab stressed at 45°C for 10 days (45C10d) (antibody)
